25 sequences from a protein production outcome set (Wang et al. 2014) can be followed below.

A short description of the data set: label from the status in PepcDB records.
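Note: failed if final PepcDB status was selected cloned or expressed and not failed if soluble or beyond.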

For the sequence “AIAAEAVLRVARRQLSQRGGSGAPILLRQMFEPVSCTFTYLLGDRESREAVLIDPVLETAPRDAQLIKELGLRLLYAVNTHCHADHITGSGLLRSLLPGCQSVISRLSGAQADLHIEDGDSIRFGRFALETRASPGHTPGCVTFVLNDHSMAFTGDALLIRGCGRTDFQQGCAKTLYHSVHEKIFTLPGDCLIYPAHDYHGFTVSTVEEERTLNPRLTLSCEEFVKIMGNLNLPKPQQIDFAVPANMRCGVQTPTA”, the protein production entry was “failed”. Then “AIAAVKAQVLYDFTAEPGNNELTVHEGETLTITNQNVGGGWVEAQNSRGNVGLVPVDYVEVNSASAQAPATQYIDARNQGNNNSTANTQGVNGNEAWTATTWSNSYPADNWNYTEQEPAGNNGSVYSFDEEWDDDSDDGKSTGGYGGSQAEDGGTMQRSGAHSTMKLSLNKFPGFSKTPNPEVYLLTKHITKGNDRLSVYPGEVGPVWLYPQTQLDCVVADPKKGSKMYGLKSYIEYQITPNTTNRPVNHRYKHFDWLYERLVEKFACALPVPGLPDKQVTGRFEEEFIKMRMERLQGWMSRMCRHPVISNSEVFQLFLNYRDEKEWKLGKRKAEKDETVGVKIFSTIDPELPELDPAQVEQKYEVYNQFTRSMDNSVKELLAVGNLHWKRCTGPLQKEYRQIGKAFQNMSSVFNTSGYPRESTLTEALTATGKTYEEIAEVIAAQPRKDLHFLLETNNEYKGLLGCFPDTIGVHKAAIDKVKEADHLVMTNKISQQDKHTMEKNLSTMSYALQAEMNHFHSNRIYDYNRLMQFYLEEQVKFYETIAEKLKKALGQYTTI”, with “failed”; and “AIAEPGSPAGAGAEAPAFYSERKLSRKQLKKLAKAEREYEEERRKELEAAQAVDTAQKRELARIESILRTHALRMEYVEPDGHCLFRALVRQLRPLIQSGLFDTYFPAADTETRSALLTWSTIPDEMEAVWLLRKTLASFIRRRGTEFFPFIVGELDPQGTLLDASDDPAERVAQYCARLEDGTLWGGQPELQAVALALRCRVFVFADPEILPNGMLVMGADDASTDTGAESVTALRVSFHKQFFSLGEHYHAVVPADDSRGDARDPRISAS”, with “not failed”; and “AIAFKRKTAWFSDSVEKEVISFWVSEGGDISSWKTAGYLFSDDASSEDTKRIYGSEDYVKNRATVFHSSFLLACQPRQSVTSVPIGHYVLPPDFVQNEMKAIIGRFIWEKDEQVICEEQINPEVPKDILSGETEDHALRERSSQDDYQTVTSQSKVCSCCEMRQYPVNNMISGYVHIDQMRKYSGELKDFLPSLHGHDVSRSNDPTPPFHRKAV”, with “failed”. As for “AIAKETEQVSEAPHGLEGAWLDLTNRVRVSGDTVEACSAFSIGPPRCRWLLQATDRGVNCAALDHYVPHICGTHTETVYHIAHHRYIKRAVCEIPFFRFHKARIQVCTAKIACTEQVLPSADTDYPCLEPNDLIVGPSALNRAPRYTRAQDSTIEALILIVVGPDGTSDWRDGKLDDRPPYLTPAAIESLATRYPNMRHLLTNLPSVDRRRDGGLVRSHRAFFATDFAGDGTPSESPQKTITELLRVPPDWQLYDDAEGVVCISLAPIEGLDAIPSSVYFKSH”, the protein production result is given as “failed”. The value for “AIAPVKKKRKAPGVAAAVAEDAGLKKCKIPSYCRSQPPARLISGEEDFSRKKCLAWFYEYAGPDEVVGPEGMEKFCEDIGVEPENIIMLVLAWKLEAESMGFFTKEEWLKGMTSLQCDCTEKLQSRFDFLRSQLNDISSFKNIYTYAFDFARDKDQRSLDIDTAKSMLALLLGRTWPLFSVFYQYLEQSKYRVMNKDQWYNVLEFSRTVHADLSNYDEDGAWPVLLDEFVEWQKNPSNIIARTVVKTMQTL” was “failed”.

As for “AIASERLYYFVIVGRDDRVLYDLLYPASLSELDWRTSSELSSPAERGDFEPHHFIPSIQVLLQFVAYSALDHIEEKYWLTSARSLKHIFRFRDWSASVQLTPNAATRFVLVHGASDDASRNVRAFLHAVYEAYVPHVVCNPFQEEDAPITSKRFHEVAKNLAKRYFSG”, the protein production entry is on record as “failed”. Then “AIASNSLEEKKSYFSNRVNLLVENIGTSLRDLLRQGADSSDWNEYAGNLELHLSIENISRDLEELLTLSFEIEVLTLEGNLPQVMSETDGVEAAIQKRIAELNFALEQTGVFSGFSFLYDVNFQQIVEKATRALQKVSDYTPWVLDDGHNM”, with “failed”; and “AIREFNTKEKVFNEFTAVFDVLNHLPAFAKLHLANSMSVRYANTLGISQRNAEVFANRGTSGIDGVISTAYGYALKTSQLVTIITGDLAFFYDRNAFWNNYKPSNLRVVLLNNHGGGIFRMIDGPSALPELDELFETKQTLSARYLATEHGLEYTLCKNLNGLNQALESFFQPSMFGKILEIETDSVKN”, with “failed”. For the sequence “AKSEMAFAGKGEISPRAITMWDFSWLERRWPGAGYEDWDQVLDELSERGYNAIRIDAYPHLIAENPMKKWLLKEVWNQQDWGSPDMNEVQVQPNLNLFLSKCKERDIKVGLSSWYRLDVDEVCLKLDTPEKLADCWLTILRSIEEDGLLDTILYVDLCNEWPGDSWAPFFAKTYPNVGWGNWYKEESLRWMKTSLEKMRQVYPDMPFLYSFDHGDVKKYEEVDCSFLDLYEHHIWMAQQNGGEFYKLVGYGYNRFLPDDYKNVVKNAERVYRERPGYWQKLLTDKIELMASVARKNRRPLVTTECWGLVDYKDWPLLKWDWVKDLCELGTITAARTGMWVGVATSNFCGPQFAGMWRDVEWHKRLTSIIRSSPLDESLTKNNEVAAKLLKRL”, the protein production result is “not failed”. Take “ALRERSEGLVLIGRRHLRSNNSWLHNVPALTGGTNRCTLHIHPEDAERLGLTDGAPVRVRGAGGAVTAPVEVTDGIRRGVVSLPHGWGHDRPGTRMSHAALDPGVNVNQLLDGSLLDPLSGNAVLNGVPVELTRT”: the protein production result is “failed”. Turning to “AMPIAKAIEEKWGVPAEVVIAQAALESGWGKHVKGNAYFGIKGKGSQGSINFGTHEVINGKKISINDNFASYGGFGDAANGYGEFLNKNKRYREAFKHKDNPVEFAKAIARAGYATDPDYANKLTKIIQSNKFS”, the protein production result is recorded as “not failed”.

Turning to “ANVKLLLPYILKWEGGFVHDPADAGGATNKGVTIATWKRVGYDKDGDGDIDVEDLKLLTDDDVLNRVLKPFYWDRWKADLIESQKVANILVDWVWGSGKYGIVIPQRILGVQADGIVGNKTLQAVNSADPDELFESIFDARREFLEDITARSIKKYEDSIGRKATERELLRHTNKRFLRGWLNRLEDIRKL”, the protein production result is given as “not failed”. As for “AQAEVRIDGPIEYGVFESRYQDFQPGERVLTRSEQNIQQTTEVPAKLGTKFGMRYQLSGKQEGDTPLTLLYLTPGVVTPDGQRHDKFEVVQKLVPGAPTDVMAYEFTEPHEVVKGEWRLMVFQGDRLLAEKSFDVR”, the protein production result is “not failed”. For “AQNQDCAFFFPNQEGEQITRNCYTADGKLTNILVYRVDQAYEYPSGMEVVANYTFADAAGKTLNSGQMVARCSDGNFSMSMGDVATFPTALNMMNADVYMMGDLMNYPDAFSNPMNPGDDDEFDDGTLRLYQKGNKNNRAEISVFDREFVTTETVNTPAGAFYCTKVKYEMNIWTPKETIKGYGYEWYAPNIGIVRSEQYNNKKELQSYSVLERIKK”, the protein production result was “not failed”. With “ARRASAGELDAAVMHELAPLKMERAVFQTRITEGEPGPEGRDAVAFEVATNPGAPAGPLNRIASGGELSRFLLALKVCLRGDDGGKTMIFDEIDRGVGGATADAVGRRLEALAGAGQVLVVTHSPQVAARGVHHWRV”, the protein production result is given as “failed”. Then “ARTYRGVELIPVENIYYFLADQKYVTVRHKNGSVLIDETLKELELEFQNRFIRIHRNALVSVDYLDGLEVISSGQYQVRCREVNERLAVSRRHLPYLRDRMQKM”, with “failed”; and “ASETQQWKTLEDTRSALMGVYGLTRAALADNNTHWICGDLRKGDFTVYKRSDLQAVSDNELNKPYDLLKKVSNWRRFYAVINAASVFMEKAPRTVELDRSYSEQNLKYDIAQVRALRAFAYFYMVRIWGDVPLVTYSYDNGTFPSMPRTDAQTVLSYAKAELLTAIEDLPYQYGTQTNLYYGSYGAQWQGKLFNKLSAYSVLAHICAWQGNYAEAETYSAFIIDHASEINAKYTSIADLTSETGLFYSNASVKGSRILGFNFAHNDNEATQSGHLEQLTLAYPLVQKSYPEIYISKDSLFSIFTNFDDLRFGIIDTIKYSSYYVQNLNEETPVFSKIKIIQDGSAKDNDFGVFGSSIVFTRLEDITLLRAEALCALNRSTEAVSYLNMIRTNRGLREVSFKKDFGNNRESLIAEIFEERRRELMGEGWRWYDLVRRQKLMKDNEAFLRLISSGGIYWPVSEDIITANSQIEQNEFWK”, with “not failed”; and “ASHLQFVQPKKAPPLSVSLIQGNIPQDLKWLTEYQFKTLMIYANLTRSEWGRDLIVWPESSIPMFQTDIQPFLDAMNQQAKNRGSAWVTGIPYWDVTGSREVGTPLYYNSIMASGDNSQGLYKKQRLVPFGEYIPLSGLLSWVLPALQNDPSMSGFSQGSNNQKPLMIKGHRLAAAICYEVAYPNLTRRNAENSDFLVTVSNDAWFTGTAGPMQHLQMVQMRAKENGRWFIRATNTGVTAFIDSQGHIVKQAPIDKEAVLRGDLPAMQGETLYTRLSDWPILLFSVLLLILGWIYRPRQVDVSFKSRR”, with “failed”.

As for “ASNTNLIVNYLPQDMTDRELYALFRAIGPINTCRIMRDYKTGYSYGYAFVDFTSEMDSQRAIKVLNGITVRNKRLKVSYARPGGESIKDTNLYVTNLPRTITDDQLDTIFGKYGSIVQKNILRDKLTGRPRGVAFVRYNKREEAQEAISALNNVIPEGGSQPLSVRLA”, the protein production entry is given as “not failed”. As for “ASRPHQWQTDEEGVRTGKCSFPVKYLGHVEVDESRGMHICEDAVKRLKATGKKAVKAVLWVSADGLRVVDEKTKDLIVDQTIEKVSFCAPDRNFDRAFSYICRDGTTRRWICHCFMAVKDTGERLSHAVGCAFAACLERKQKR”, the protein production entry is “not failed”. The value for “ATAPTPASSETLSGNPALPPPVPGERHDIDSFGGRLTYWSAAPAEPTSEPPLLLIHSVNAAGSAYEVRPIFEHYARSRPVYAIELPGFGHSSRAKRQYTIRMMTDAVHSVVAEIQKVHADKRIDALALSLGSEFLARAASETPQAFRSLALVAPTGFDKKNQRWTAGSRAIPWLHSFFENPVWSESIFKLLTMKPVIGWFLKKAFGSPSIDQGMLDYDYLTTHQPGAQHAPYYFVSGYLFSQDILRIYQDLPMPVWFSHGVRGDFVDYTLKTTVEGRPNWTVTVFQTGAMPHFEVPGEFMRAYDEFLGRVTKA” was “failed”; that for “ATDSATAAPAAAATTQVQKEAADVLQVAVQGANAMRDIQFARLALFHGQPDSAKKLTDDAAALLAADDASWAKFVKTDAKAKMIADRYVIINASIALSEDYVATPEKESAIQSANEKLAKGDQKGAIDTLRLAGIGVIENQYLMPLNQTRKAVAQSQELLKAGKYYEANLVLKGAEEGIVVDSEMLVAGN” was “not failed”. Then “ATTMEQETCAHSLTFEECPKCSALQYRNGFYLLKYDEEWYPEELLTDGEDDVFDPELDMEVVFELQGNSTSSDKNNSSSEGNEGVIINNFYSNQYQNSIDLSANAAGSDPPRTYGQFSNLLSGAVNAFSNMLPLLADQNTEEMENLSDRVSQDTAGNTVTNTQSTVGRLVGYGTVHDGEHPASCADTASEKILAVERYYTFKVNDWTSTQKPFEYIRIPLPHVLSGEDGGVFGAALRRHYLVKTGWRVQVQCNASQFHAGSLLVFMAPEYPTLDAFAMDNRWSKDNLPNGTRTQTNKKGPFAMDHQNFWQWTLYPHQFLNLRTNTTVDLEVPYVNIAPTSSWTQHASWTLVIAVVAPLTYSTGASTSLDITASIQPVRPVFNGLRHETLSRQ”, with “not failed”; and “AVDLNKENRDPKYVESIVNRSQKIVDKLGLTDAKVAEDVCNVIANRYFELNDIYEIRDAKVKAVKESGLTGDAKNEALKAAENEKDAALYRSHFAFPASLSLFLNEEQIEAVKDGMTYGVVKVTYEATLDMIPSLKEEEKVQIYAWLVEAREFAMDAENSNKKHAAFGKYKGRINNYLAKRGYNLTKEREEWAKRVKARGGTL”, with “not failed”.
